Experiment: Tissue distribution of radioactivity by LSC following combustion, albino rats
Format: in vivo, male Sprague-Dawley (albino) rats
Conditions: for Concentration of the radioactivity, Pituitary / Concentration of the radioactivity, Plasma / Concentration of the radioactivity, Skeletal muscle / Concentration of the radioactivity, Skin / Concentration of the radioactivity, Spinal cord / Concentration of the radioactivity, Spleen / Concentration of the radioactivity, Stomach / Concentration of the radioactivity, Submandibular lymph nodes / Concentration of the radioactivity, Testes / Concentration of the radioactivity, Thymus / Concentration of the radioactivity, Thyroid gland / Concentration of the radioactivity, Urinary bladder / Concentration of the radioactivity, Adrenals / Concentration of the radioactivity, Blood / Concentration of the radioactivity, Bone (femur) / Concentration of the radioactivity, Bone marrow / Concentration of the radioactivity, Brain / Concentration of the radioactivity, Eyes / Concentration of the radioactivity, Fat / Concentration of the radioactivity, Harderian glands / Concentration of the radioactivity, Heart / Concentration of the radioactivity, Intestine / Concentration of the radioactivity, Kidneys / Concentration of the radioactivity, Liver / Concentration of the radioactivity, Lungs / Concentration of the radioactivity, Pancreas: mean ± SD, n=3; for tissue to plasma ratios: single IV 5 mg·kg^−1
Experimental: Total captured radioactivity was subsequently measured via LSC.
Male Sprague-Dawley (albino) rats (n = 21; three per time point) were administered a single IV dose of 5 mg·kg^−1 [^14C]-peginesatide (27.5 μCi/kg) and tissue concentrations of radioactivity determined at 0.25, 6, and 24 h, and 7,14,30 and 60 days following dosing. Similarly, male Long Evans (pigmented) rats (n = 21; three per time point) were administered a single IV dose of 5 mg-kg^−1 [^14C]-peginesatide and plasma, skin, and eye concentrations of radioactivity were measured at the various time points through 60 days after dosing. At each time point, blood was collected, the animals sacrificed, and tissues excised. Tissues collected from the Sprague-Dawley rats included blood, plasma, adrenals, bone marrow, brain, eyes, fat, femur, Harderian glands, heart, hypophysis, intestine, kidneys, lungs, liver, pancreas, skeletal muscle, skin, spinal cord, spleen, stomach, submaxillary glands, testes, thymus, thyroid gland, and urinary bladder. Plasma, eyes, non-pigmented skin, and pigmented skin were collected from Long Evans rats. All tissue samples were measured for radioactivity by LSC following combustion. The liver and intestine were first homogenized in distilled water (20% w/v) prior to analysis. The concentration of radioactivity in the blood, plasma, and tissues was calculated and expressed as ug equiv·g^-1 or mLbased on the LSC counts and the specific activity of the dosing solution.

[1] = 60 Days after single IV 5 mg·kg^−1, LSC
[2] = 0.25 h after single IV 5 mg·kg^−1, LSC
[3] = 6 h after single IV 5 mg·kg^−1, LSC
[4] = 24 h after single IV 5 mg·kg^−1, LSC

Peginesatide
Concentration of the radioactivity, Pituitary [1]: 4.32 ± 0.289 μg equiv·g^−1 or mL | Concentration of the radioactivity, Plasma [1]: 0.232 ± 0.042 μg equiv·g^−1 or mL | Concentration of the radioactivity, Skeletal muscle [1]: 0.085 ± 0.021 μg equiv·g^−1 or mL | Concentration of the radioactivity, Skin [1]: 0.394 ± 0.080 μg equiv·g^−1 or mL | Concentration of the radioactivity, Spinal cord [1]: 0.036 ± 0.018 μg equiv·g^−1 or mL | Concentration of the radioactivity, Spleen [1]: 3.40 ± 0.480 μg equiv·g^−1 or mL | Concentration of the radioactivity, Stomach [1]: 0.590 ± 0.242 μg equiv·g^−1 or mL | Concentration of the radioactivity, Submandibular lymph nodes [1]: 8.74 ± 1.22 μg equiv·g^−1 or mL | Concentration of the radioactivity, Testes [1]: 5.10 ± 2.17 μg equiv·g^−1 or mL | Concentration of the radioactivity, Thymus [1]: 1.15 ± 0.155 μg equiv·g^−1 or mL | Concentration of the radioactivity, Thyroid gland [1]: 8.03 ± 1.45 μg equiv·g^−1 or mL | Concentration of the radioactivity, Urinary bladder [1]: 0.967 ± 0.188 μg equiv·g^−1 or mL | Concentration of the radioactivity, Adrenals [2]: 8.45 ± 0.517 μg equiv·g^−1 or mL | Concentration of the radioactivity, Blood [2]: 80.9 ± 1.90 μg equiv·g^−1 or mL | Concentration of the radioactivity, Bone (femur) [2]: 1.95 ± 0.128 μg equiv·g^−1 or mL | Concentration of the radioactivity, Bone marrow [2]: 9.66 ± 0.367 μg equiv·g^−1 or mL | Concentration of the radioactivity, Brain [2]: 1.18 ± 0.030 μg equiv·g^−1 or mL | Concentration of the radioactivity, Eyes [2]: 0.346 ± 0.029 μg equiv·g^−1 or mL | Concentration of the radioactivity, Fat [2]: 0.861 ± 0.096 μg equiv·g^−1 or mL | Concentration of the radioactivity, Harderian glands [2]: 1.15 ± 0.357 μg equiv·g^−1 or mL | Concentration of the radioactivity, Heart [2]: 6.33 ± 0.512 μg equiv·g^−1 or mL | Concentration of the radioactivity, Intestine [2]: 1.47 ± 0.158 μg equiv·g^−1 or mL | Concentration of the radioactivity, Kidneys [2]: 11.2 ± 1.48 μg equiv·g^−1 or mL | Concentration of the radioactivity, Liver [2]: 7.03 ± 0.613 μg equiv·g^−1 or mL | Concentration of the radioactivity, Lungs [2]: 8.46 ± 0.824 μg equiv·g^−1 or mL | Concentration of the radioactivity, Pancreas [2]: 2.56 ± 0.036 μg equiv·g^−1 or mL | Concentration of the radioactivity, Pituitary [2]: 13.2 ± 1.08 μg equiv·g^−1 or mL | Concentration of the radioactivity, Plasma [2]: 131 ± 3.86 μg equiv·g^−1 or mL | Concentration of the radioactivity, Skeletal muscle [2]: 0.569 ± 0.100 μg equiv·g^−1 or mL | Concentration of the radioactivity, Skin [2]: 0.376 ± 0.103 μg equiv·g^−1 or mL | Concentration of the radioactivity, Spinal cord [2]: 0.909 ± 0.289 μg equiv·g^−1 or mL | Concentration of the radioactivity, Spleen [2]: 4.62 ± 0.185 μg equiv·g^−1 or mL | Concentration of the radioactivity, Stomach [2]: 1.32 ± 0.257 μg equiv·g^−1 or mL | Concentration of the radioactivity, Submandibular lymph nodes [2]: 2.57 ± 0.038 μg equiv·g^−1 or mL | Concentration of the radioactivity, Testes [2]: 1.14 ± 0.083 μg equiv·g^−1 or mL | Concentration of the radioactivity, Thymus [2]: 0.669 ± 0.115 μg equiv·g^−1 or mL | Concentration of the radioactivity, Thyroid gland [2]: 8.25 ± 1.42 μg equiv·g^−1 or mL | Concentration of the radioactivity, Urinary bladder [2]: 2.40 ± 1.32 μg equiv·g^−1 or mL | Concentration of the radioactivity, Adrenals [3]: 7.83 ± 1.38 μg equiv·g^−1 or mL | Concentration of the radioactivity, Blood [3]: 60.9 ± 4.36 μg equiv·g^−1 or mL | Concentration of the radioactivity, Bone (femur) [3]: 1.53 ± 0.555 μg equiv·g^−1 or mL | Concentration of the radioactivity, Bone marrow [3]: 8.66 ± 2.79 μg equiv·g^−1 or mL | Concentration of the radioactivity, Brain [3]: 0.939 ± 0.015 μg equiv·g^−1 or mL | Concentration of the radioactivity, Eyes [3]: 0.779 ± 0.168 μg equiv·g^−1 or mL | Concentration of the radioactivity, Fat [3]: 0.923 ± 0.308 μg equiv·g^−1 or mL | Concentration of the radioactivity, Harderian glands [3]: 1.91 ± 0.183 μg equiv·g^−1 or mL | Concentration of the radioactivity, Heart [3]: 7.71 ± 1.29 μg equiv·g^−1 or mL | Concentration of the radioactivity, Intestine [3]: 3.07 ± 0.233 μg equiv·g^−1 or mL | Concentration of the radioactivity, Kidneys [3]: 10.6 ± 1.16 μg equiv·g^−1 or mL | Concentration of the radioactivity, Liver [3]: 7.51 ± 0.438 μg equiv·g^−1 or mL | Concentration of the radioactivity, Lungs [3]: 8.37 ± 1.27 μg equiv·g^−1 or mL | Concentration of the radioactivity, Pancreas [3]: 3.83 ± 0.582 μg equiv·g^−1 or mL | Concentration of the radioactivity, Pituitary [3]: 13.9 ± 2.71 μg equiv·g^−1 or mL | Concentration of the radioactivity, Plasma [3]: 99.6 ± 2.94 μg equiv·g^−1 or mL | Concentration of the radioactivity, Skeletal muscle [3]: 0.447 ± 0.037 μg equiv·g^−1 or mL | Concentration of the radioactivity, Skin [3]: 1.41 ± 0.175 μg equiv·g^−1 or mL | Concentration of the radioactivity, Spinal cord [3]: 0.662 ± 0.070 μg equiv·g^−1 or mL | Concentration of the radioactivity, Spleen [3]: 5.51 ± 0.776 μg equiv·g^−1 or mL | Concentration of the radioactivity, Stomach [3]: 2.69 ± 0.013 μg equiv·g^−1 or mL | Concentration of the radioactivity, Submandibular lymph nodes [3]: 4.25 ± 0.140 μg equiv·g^−1 or mL | Concentration of the radioactivity, Testes [3]: 4.01 ± 0.254 μg equiv·g^−1 or mL | Concentration of the radioactivity, Thymus [3]: 1.02 ± 0.040 μg equiv·g^−1 or mL | Concentration of the radioactivity, Thyroid gland [3]: 10.1 ± 1.79 μg equiv·g^−1 or mL | Concentration of the radioactivity, Urinary bladder [3]: 3.53 ± 0.234 μg equiv·g^−1 or mL | Concentration of the radioactivity, Adrenals [4]: 10.0 ± 1.15 μg equiv·g^−1 or mL | Concentration of the radioactivity, Blood [4]: 39.7 ± 2.51 μg equiv·g^−1 or mL | Concentration of the radioactivity, Bone (femur) [4]: 1.16 ± 0.177 μg equiv·g^−1 or mL | Concentration of the radioactivity, Bone marrow [4]: 8.50 ± 1.23 μg equiv·g^−1 or mL | Concentration of the radioactivity, Brain [4]: 0.646 ± 0.050 μg equiv·g^−1 or mL | Concentration of the radioactivity, Eyes [4]: 0.806 ± 0.063 μg equiv·g^−1 or mL | Concentration of the radioactivity, Fat [4]: 1.65 ± 0.392 μg equiv·g^−1 or mL | Concentration of the radioactivity, Harderian glands [4]: 2.55 ± 0.105 μg equiv·g^−1 or mL | Concentration of the radioactivity, Heart [4]: 6.28 ± 0.256 μg equiv·g^−1 or mL | Concentration of the radioactivity, Intestine [4]: 3.10 ± 0.144 μg equiv·g^−1 or mL | Concentration of the radioactivity, Kidneys [4]: 8.75 ± 1.47 μg equiv·g^−1 or mL | Concentration of the radioactivity, Liver [4]: 9.26 ± 0.516 μg equiv·g^−1 or mL | Concentration of the radioactivity, Lungs [4]: 7.22 ± 0.464 μg equiv·g^−1 or mL | Concentration of the radioactivity, Pancreas [4]: 5.14 ± 0.582 μg equiv·g^−1 or mL | Concentration of the radioactivity, Pituitary [4]: 13.7 ± 2.02 μg equiv·g^−1 or mL | Concentration of the radioactivity, Plasma [4]: 64.1 ± 5.12 μg equiv·g^−1 or mL | Concentration of the radioactivity, Skeletal muscle [4]: 0.584 ± 0.044 μg equiv·g^−1 or mL | Concentration of the radioactivity, Skin [4]: 3.29 ± 0.308 μg equiv·g^−1 or mL | Concentration of the radioactivity, Spinal cord [4]: 0.442 ± 0.090 μg equiv·g^−1 or mL | Concentration of the radioactivity, Spleen [4]: 10.2 ± 1.04 μg equiv·g^−1 or mL | Concentration of the radioactivity, Stomach [4]: 3.01 ± 0.168 μg equiv·g^−1 or mL | Concentration of the radioactivity, Submandibular lymph nodes [4]: 5.72 ± 0.303 μg equiv·g^−1 or mL | Concentration of the radioactivity, Testes [4]: 4.15 ± 0.605 μg equiv·g^−1 or mL | Concentration of the radioactivity, Thymus [4]: 1.90 ± 0.201 μg equiv·g^−1 or mL | Concentration of the radioactivity, Thyroid gland [4]: 10.2 ± 1.10 μg equiv·g^−1 or mL | Concentration of the radioactivity, Urinary bladder [4]: 6.18 ± 0.260 μg equiv·g^−1 or mL | tissue to plasma ratios (after 24 h, in most tissues): > 1 | tissue to plasma ratios (through at least 24 h after dosing): < 1

From article PMC3409459, “Absorption, distribution, metabolism and excretion of peginesatide, a novel erythropoiesis-stimulating agent, in rats” (Xenobiotica; the Fate of Foreign Compounds in Biological …, 2011)
